Reference: patent publication US20200317802A1 (Merck KGaA, published 2020)

Experiments:
[1] = target: T1, recombinant human ADAMTS5 (R&D Systems cat #2198-AD) (human, UniProt Q9UNA0 262-622, limits assumed); experiment: cell-based or functional assay
T1 sequence: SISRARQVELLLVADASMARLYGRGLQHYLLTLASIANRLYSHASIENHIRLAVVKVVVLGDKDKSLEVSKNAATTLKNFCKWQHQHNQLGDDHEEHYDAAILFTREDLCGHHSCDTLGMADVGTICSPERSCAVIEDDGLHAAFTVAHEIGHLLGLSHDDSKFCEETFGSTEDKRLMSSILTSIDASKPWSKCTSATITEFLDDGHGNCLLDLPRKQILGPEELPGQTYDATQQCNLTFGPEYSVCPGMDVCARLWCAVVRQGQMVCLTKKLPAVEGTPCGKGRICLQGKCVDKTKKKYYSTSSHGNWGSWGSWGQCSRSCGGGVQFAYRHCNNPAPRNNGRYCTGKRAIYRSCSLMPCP

[2] = target: T1, recombinant human ADAMTS5 (R&D Systems …); experiment: SPR kinetics, Biacore T100, ADAMTS5 immobilised
Procedure: (§1) For referencing, affinity for human ADAMTS5 was also determined. Thereto, rat and human ADAMTS5 were immobilized onto a CM5 chip via amine coupling, using EDC and NHS chemistry. Purified Nanobodies were injected for 2 minutes at different concentrations (between 1 and 1000 nM) and allowed to dissociate for 25 min at a flow rate of 45 μl/min. The kinetic constants were calculated from the sensorgrams using the BIAEvaluation software (1:1 interaction).

rat recombinant ADAMTS5 = target: T2, rat recombinant ADAMTS5 (rat, UniProt Q9R001 262-618 (mouse entry)); experiment: SPR kinetics, Biacore T100, ADAMTS5 immobilised
T2 construct: in house, HEK293, His tag in the entry
T2 chain: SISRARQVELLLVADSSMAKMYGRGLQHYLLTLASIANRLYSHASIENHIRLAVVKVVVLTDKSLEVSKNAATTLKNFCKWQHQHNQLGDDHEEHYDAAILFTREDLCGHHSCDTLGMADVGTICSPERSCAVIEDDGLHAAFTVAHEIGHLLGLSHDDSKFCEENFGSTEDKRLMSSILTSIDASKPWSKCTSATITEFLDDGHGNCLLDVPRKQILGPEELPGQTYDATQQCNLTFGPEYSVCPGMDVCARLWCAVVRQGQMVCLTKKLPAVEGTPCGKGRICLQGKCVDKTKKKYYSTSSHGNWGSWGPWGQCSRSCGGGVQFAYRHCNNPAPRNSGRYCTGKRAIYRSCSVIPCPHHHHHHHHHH
Procedure: as §1

B1: Nanobody 049 (11B06 (N52S)) (VHH)
VHH: EVQLVESGGGLVQAGGSLRLSCAASGLTFRRNAMGWFRQAPGKERELLAGISWSGGTTYYVDSVKGRFTISRDNAKNTVDLQMISPKPEDTAVYYCAADGDIGTLVNDENPRYWGQGTLVTVSS
notes: N-glycosylation motif knocked out; also called construct 049
[1]
  AlphaLISA IC50, - HSA: 0.1 nM
[2]
  Kd: 3.5 nM
Rat recombinant ADAMTS5
  Kd: 1.7 nM

B2: Nanobody 093 (3F04 (N100fQ)) (VHH)
VHH: EVQLVESGGGSVQAGGSLRLSCVASGRYPMAWFRQAPGKEREFVAGVSWGGDRTYYADSVQGRFTVSRDYAKNTLYLQMNSLKPEDAAVYYCAGDPWGRLFRVKDQYSDWGQGTLVTVSS
notes: N-glycosylation motif knocked out; also called construct 093
[2]
  Kd: 4.9 nM
Rat recombinant ADAMTS5
  Kd: 5.3 nM
